This is an account of results in patent publication US20220227846A1 (TEMPLE UNIVERSITY OF THE COMMONWEALTH SYSTEM OF HIGHER …, published 2022).

What all share (assay): SPR, calculated KD (Qdat software)
For experiment [1], the target named is T1, N-terminal biotinylated Aβ42 monomers (UniProt P05067 672-713, N-terminal biotin).
T1 construct: domain: Aβ42; also called NTB mono
As for the experimental part: (§1) MAb binding to Aβ42 conformers was measured by surface plasma resonance (SPR) (Table 1). Calculated affinity constants (KD) were obtained using Qdat software. […] The 3H3 binding data is qualitatively most similar to the 4G1 and 6E10 mAbs. 4A6 and 2C10 preferentially bind Aβ fibrils.

The target of experiment [2] is T2, Aβ42 oligomers (ADDLs/globulomers) (UniProt P05067 672-713).
T2 construct: domain: Aβ42; Oligomeric conformer of Aβ42; also called amyloid beta derived diffusible ligands
As for the experimental part: as §1

In the next experiment the target is T3, Aβ42 fibrils (UniProt P05067 672-713).
T3 construct: domain: Aβ42; Fibrillar conformer of Aβ42; also called Aβ fibrils
As for the experimental part:
as §1

For experiment [3], the target named is T4, C-terminal biotinylated Aβ42 ADDLs/globulomers (UniProt P05067 672-713, C-terminal biotin).
T4 construct: domain: Aβ42; also called CTB oligo
As for the experimental part: as §1

For experiment [4], the target named is T5, C-terminal biotinylated Aβ42 monomers (UniProt P05067 672-713, C-terminal biotin).
T5 construct: domain: Aβ42; also called CTB mono
As for the experimental part:
as §1

T5 sequence (P05067 672-713 limits assumed): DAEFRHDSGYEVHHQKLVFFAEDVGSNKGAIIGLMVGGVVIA
T3 sequence (P05067 672-713 limits assumed): as above
T2 sequence (P05067 672-713 limits assumed): as above
T1 sequence (P05067 672-713 limits assumed): as above
T4 sequence (P05067 672-713 limits assumed): as above

B1: ALZ.3H3 (antibody, V domains shown)
VH: QVQLVESGGGVVQPGRSLRLSCAASGFSFSTYGMHWVRQAPGKGLEWVAVISYDGSRKYYADTGKGRFTISRDNSKNTLYLEMNGLRAEDTAVYHCAKDLRRELGFGNRDYHYYGMDAWGQGTTVTVSS
VL: LTQPRSVSGSPGQSVTMSCTGTNSDIGGYNYVSWYQQHPGKAPKLMIYDVYKRPSGVPDRFSGSKSGNTASLTISGLQAEDEADYYCCSYAGTNNLIFGGGTKLTVLG
As to B1, the Kd was 240 nM in experiment [1]; 40 nM in experiment [2]; 2.1 nM with Aβ42 fibrils; 35 nM in experiment [3]; 3.4 nM in experiment [4].

B2: ALZ.4A6 (antibody, V domains shown)
VH: QVQLVQSGAEVKKPGASMRVSCKASGYTYTAYYIHWMRQAPGQGLEWMGWINPHIGSTNYAEKFRGRVTLTRDTSIKTAYMDLDRLTSDDTAIYYCARVRAPRSISGTLNSYGMDVWGQGTTVAVSS
VL: DIVMTQSPSSLSASVGDRVVITCRASLRIGTFLNWYQQTQGRAPKLLVSSASTLQSGVPSRFSGSGSGTDFTLTINSLQPEDFATYYCQQSYSTTWTFGQGTKVELK
notes: Human mAb cloned from hybridomas made from B cells of a patient with Alzheimer's Disease
In the case of B2, the equilibrium dissociation constant (Kd) in experiment [2] was 1300 nM; with Aβ42 fibrils, 11 nM; in experiment [4], 16 nM.

B3: ALZ.4G1 (antibody, V domains shown)
VH: EEHLVESGGALVQPGGSLRLSCEASGFTFRSYWMTWVRQAPGKGLEWLANIKQDGSDYYYVDSVKGRFTISRDNAKNTLYLQMNNLRADDTAVYFCARDARYRDTTWPQYYFYYFMDVWGKGTTVTVSS
VL: DIQLTQSPSSLSASIGDRVTVTCRASQSISNYLNWYQQKPGKAPKLLIYAASNLHTGVPSRFSGSGSGTHFTLTISSLQPEDFATYYCQLSYNNPRTFGPGTTVDIR
notes: as for B2
On to B3, for which the equilibrium dissociation constant (Kd) was 1700 nM in experiment [1]; 8.8 nM in experiment [2]; 14 nM with Aβ42 fibrils; 11.4 nM in experiment [3]; 15 nM in experiment [4].

A word on the Kd: it is the concentration at which binding is half-saturated.
